± gives the uncertainty stated by the source.

The data set can be described thus: amyloid nucleation score (Sup35N fusion, yeast selection) (log enrichment); library NNK3; higher = more nucleation; inactive = no reads after selection. A digest of the protocol: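 Yeast lacking psi expressed peptides of 20 random codons fused to Sup35N, received 100 μM copper sulfate for 24 hours, and were then grown for 7 days at 30°C on medium lacking adenine and uracil. Illumina sequencing of input and output plasmid inserts provided the reads. Nucleation scores are DiMSum log enrichments of output over input, centred on the mode of non-aggregating sequences. Any sequence with under 100 input reads was excluded.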
Turning to RLGVVASPLHSTCIGNLLHG, the amyloid nucleation score entry is “inactive”.

For RLIYLWVPYCNMCRCGLLCK, the amyloid nucleation score result was “inactive”.

For the substance RLLFFLDRKDLDAGGVFSKG, the amyloid nucleation score result is “inactive”. The value for RLLFSATFSRNFISCTKSSS was “inactive”; that for RLNCNYTFLLNTIHSPWCCC was “inactive”. In the case of RLNIYLWGVGLTRDVIYPPS, the amyloid nucleation score is 1.66 ± 0.1.

As to RLNWASVRRFTLIGRSVRRS, the amyloid nucleation score result was “inactive”. As to RLPCPCNSVACVRTWISRCS, the amyloid nucleation score entry was “inactive”. The value for RLPSREIVHCVQNSGRNPVG was 0.079 ± 0.35; that for RLQNPTCAAPWCCIGKGVIR was 0.538 ± 0.39. To RLQVRLSLLRWFRNYGLTIA belongs “inactive”. The value for RLRRLCYSSGELDALGLCVW was 0.261 ± 0.42; that for RLRVFVIGLPGALQIVGSLG was 0.005 ± 0.98; that for RLSMPPRIFMPNHNCIDHAS was “inactive”.

For the substance RLWLVYAKPGTRRCSRRMGC, the amyloid nucleation score entry was “inactive”.

In the case of RLYILAGGDFCNSCVVAYCR, the amyloid nucleation score turned out to be 0.147 ± 0.36. In the case of RLYSLSSRCNLNRATPPTKS, the amyloid nucleation score was -0.041 ± 0.75. To RLYVLAGITLTMTSTTKRSL belongs “inactive”; to RMFFYWDEFYSLIVGVMSGL, “inactive”.

On to RMFGNIDCFCIIIMKVSWSG, for which the amyloid nucleation score entry was “inactive”. To RMFICSQYWFVWVKLPPCGL belongs “inactive”. To RMFWRYWYSQEMGYDRAIKG belongs “inactive”; to RMIRNDFMITLEWGDSGGYH, 1.28 ± 0.097.

For the substance RMLLICNFGIVCQPMTSLQR, the amyloid nucleation score amounted to 2.24 ± 0.063. The value for RMMNKAADNVMNYNCVCCKS was “inactive”; that for RMTKTKI was “inactive”. To RMYLAHFCVIN belongs 2.9 ± 0.062; to RNLRVIGVTRDHGNF, “inactive”; to RNNMKTCNVMCIFSNECHCR, 2.85 ± 0.055. The value for RNTVSSTQEIWRLPISLEKT was “inactive”; that for RNWERIASGHVFCFLLCIID was “inactive”.

RNYRGTSEIRCVPWLSSVSW: the amyloid nucleation score entry is “inactive”. Turning to RPAHVIICYNLSYCNKWLHS, the amyloid nucleation score was found to be 2.04 ± 0.071. With RPNVDWKMPRFCFPSQSKTG, the amyloid nucleation score result is “inactive”. RPRALRQTLFDRYL gave an amyloid nucleation score of 0.872 ± 0.13. On to RPRHDHWNDVNDATSYRYVM, for which the amyloid nucleation score result was “inactive”.

As to RPRQSTIMKNDTSSVAVSGL, the amyloid nucleation score was -0.582 ± 1.1. On to RPWPYSYTNWDLCWLMAMPN, for which the amyloid nucleation score result was “inactive”. The value for RQADMYRYLFWGRWTVWCSW was “inactive”. As for RQFVIFYYSLIGHVNSWLRP, the amyloid nucleation score result is “inactive”. As to RQGAKVRTGGHKKQSGSSCR, the amyloid nucleation score result was “inactive”. RQLSSQREWECATPMRHRLA registered an amyloid nucleation score of 0.145 ± 0.51. Regarding RQRMSGQNVTNNHACLFKAR, the amyloid nucleation score entry was “inactive”. On to RRDPDPTLIPG, for which the amyloid nucleation score entry was “inactive”.

In turn, RREYVVGNSFFYNY returned an amyloid nucleation score of 1.19 ± 0.093.

With RRGFFYIH, the amyloid nucleation score result was “inactive”. RRGSNTGCPNVQNFVITLWQ: the amyloid nucleation score entry was “inactive”. Regarding RRPSQRLLGHIKVLWRNTTI, the amyloid nucleation score entry is “inactive”. The value for RRSVAFLPYMSW was “inactive”. To RRTRYDS belongs “inactive”; to RRVSMPLSGDKSRSVEGVRR, “inactive”. The value for RRVSSSLIEAYYREQSRFQI was “inactive”; that for RRYGYNLVTL was “inactive”; that for RSCMQLVCTCPFTGTTSRMI was 2.63 ± 0.055. For the substance RSCVLMVASVSNRNRPGDVS, the amyloid nucleation score entry is “inactive”. To RSDNESGNV belongs “inactive”.

As for RSFSECWCWISKLVGYLGVT, the amyloid nucleation score result was “inactive”. The value for RSFVVESPDKYHPIVMFGTD was “inactive”; that for RSGHRGHYKFEL was “inactive”; that for RSIGIAFLGIVGVYNMLASQ was -0.195 ± 0.59.

Take RSKWRCRTLVDWRLQV: the amyloid nucleation score result was “inactive”.

Regarding RSPYNFCKALRMGWVTNKIS, the amyloid nucleation score entry was “inactive”. To RSRKVNWCSLFVVVSHVGWK belongs “inactive”; to RSRNAAVDFCLPSSPWSSSV, “inactive”; to RSRVRKRYWLTACP, “inactive”.

With RSSDVRQYTLMCNWSKHVVL, the amyloid nucleation score is 0.089 ± 0.54. The value for RSSDYNRLHRSFSCNG was “inactive”; that for RSSWK was “inactive”. The value for RSVAVITRCSNNGRSHKC was “inactive”. As for RSVGYRTAVMRHLYIMMN, the amyloid nucleation score result is “inactive”. Take RSWESV: the amyloid nucleation score entry was “inactive”. The value for RSWSLCIGFMFFVRNS was “inactive”; that for RTCAYRMESVHVVRVSAGIM was “inactive”. To RTINWASCQSWLKVTSPKGL belongs “inactive”; to RTKYSQYHTGVSFDGSMHYS, “inactive”. In the case of RTLTSDTHIRFLDQLSRYIW, the amyloid nucleation score entry was “inactive”. Regarding RTSRT, the amyloid nucleation score result was “inactive”. The value for RTSVISISSLILALRGLYSR was “inactive”; that for RTVELEIHGLHV was “inactive”. The value for RTYHSLVSSEERRWKLKHCY was “inactive”. To RVATGVVCMM belongs “inactive”. In turn, RVCYEFKYKIKYVLD yielded an amyloid nucleation score of -0.457 ± 0.5. RVFGLMYSQREMCTWSVRNR gave an amyloid nucleation score of 0.446 ± 0.13. RVIGKCPHSRNCTPA: the amyloid nucleation score result was “inactive”. The value for RVIYG was “inactive”. RVMRMLSIVWFRWNEIVIFL: the amyloid nucleation score entry was “inactive”. The value for RVMWYGGCCWSVIYCHRLGV was “inactive”. To RVNILFNFFCHTVW belongs 1.2 ± 0.13. The value for RVNRCLLMMVDALYQNCTLN was “inactive”; that for RVPCNETELCMFYRSGLLLL was “inactive”.

As for RVPIYVHKI, the amyloid nucleation score entry was “inactive”. For RVRNSCSVIGMWMLVYSRMI, the amyloid nucleation score entry is “inactive”. The value for RVSSHISSCGYDFCLWVEA was “inactive”; that for RVTCLFFNPRRTTNYSSSVG was 1.1 ± 0.11. To RVTTMLSFVR belongs “inactive”. To RVVNRFRNCWK belongs 0.717 ± 0.19; to RVVPL, “inactive”. For RVVYLHNSVRLSLDVNPIAV, the amyloid nucleation score result is “inactive”.

In turn, RWCDA yielded an amyloid nucleation score of -0.041 ± 0.31. As to RWSGHTWTCVQDRMVCICNS, the amyloid nucleation score entry was “inactive”.

Take RWSHDMSCE: the amyloid nucleation score result is “inactive”. For RYADMSTMNAS, the amyloid nucleation score result is “inactive”.

As to RYEVPGTSFLNM, the amyloid nucleation score result was “inactive”.

As for RYFKIPF, the amyloid nucleation score entry was “inactive”. To RYFPTV belongs “inactive”; to RYFVRYVRSVLTSG, “inactive”.

Take RYGTLGDLV: the amyloid nucleation score entry is “inactive”. In turn, RYGTVDCIYCFMDLGVRDTG registered an amyloid nucleation score of 2.46 ± 0.081. To RYLFRFYSRDVVSMMQ belongs “inactive”. To RYLILMDCFR belongs 0.291 ± 0.23; to RYLNVVPLLPCYMIWFPRVS, “inactive”.

For the substance RYLTNLWNYTFLINRAMLTY, the amyloid nucleation score entry was “inactive”. The value for RYMFVVRTMPV was “inactive”; that for RYNNYTSESGPCN was “inactive”. Substance RYNRDGMTYMSISFPRGPYL had an amyloid nucleation score of 1.27 ± 0.12. The value for RYPTDSVWGIGSGLVN was “inactive”; that for RYRGFNVVVLIGKDRVGSAM was “inactive”; that for RYRGMGQNMT was “inactive”.

In the case of RYRSVNVYWIAVLRTWSAVI, the amyloid nucleation score result is “inactive”.

As for RYSRWLGT, the amyloid nucleation score entry was “inactive”. To RYTNAYRQASLRV belongs “inactive”. To RYVIIMS belongs “inactive”; to RYVIV, “inactive”; to RYYDLVSLVQARDEVCTIHD, “inactive”. To SAECSVPEYVHRHKVIWHGL belongs “inactive”. Regarding SAGISYFCDILKSTYAVFAV, the amyloid nucleation score result was “inactive”.

Turning to SAGLKS, the amyloid nucleation score result is “inactive”. Turning to SAHEFIVDCRYESIRMFVII, the amyloid nucleation score entry was “inactive”. To SAKSRFSRIVSRFYHMVICA belongs “inactive”; to SAQFRFKSSV, 1.35 ± 0.089; to SAREKIVLRVS, -0.684 ± 1.1.

With SARSGAAISTSSNKVTPVYT, the amyloid nucleation score result was “inactive”.
